Read-outs that look alike come from different tables or passages of the source.
Columns and labels:
[1] = target: Id (pBIND-Id, fusion with the DNA-binding domain of yeast gal4); test: two-hybrid
[2] = target: Id (pBIND-Id, fusion with the DNA-binding domain of yeast gal4); test: two-hybrid; remark: listed apart in the source

## MyoD (pACT-MyoD, fusion with the VP16 transactivation domain of herpes simplex virus) (natural protein)
[1]
  luciferase reporter activation over basal (two-hybrid): 10 fold
[2]
  luciferase reporter activation over basal (two-hybrid): 70 fold
